Data taken from article PMC11218510, “Functional analysis of the methylerythritol phosphate pathway terminal enzymes IspG and IspH from Zymomonas mobilis” (Microbiology Spectrum, 2024).

Target: the molecule itself
Assay: native gel or EMSA; 4%-16% Bis-Tris Native gel; 50 μM IspG, 50 μM IspH and a mixture of 25 μM each

B1: Z. mobilis Strep-tag II IspG (enzyme, UniProt Q5NR50 1-377, looked up)
chain: MSIRPWRHIERRKSRKIMVGNVAVGGDAPISVQTMTNTPTVDAQATIAQIKRCEAVGVDLIRVSCPDKESTAALKDIVRAAEVPIIADIHFHYKRALEAADAGAACLRINPGNIGSSERVAEVVRAAKANGCAIRIGVNAGSLEKELLEKYGEPCPDALVESALNHIKLLQDQDFHEFKVAVKASDVFLAVASYKALAKAVDCPLHLGITEAGGLIGGTVKSALGIGNLLWDGIGDTLRVSLSADPEQEVRVGYDILKTLDLRTRGVRVVSCPSCARQGFDVVKTVKALEERLAHIATPISLSILGCVVNGPGEARETDIGVTGGGQGKHMVFLSGVTDHTVEDAKMLDHIVSLVEAKAAEIEAEKAKEKAATVAAE
notes: IspG of Zymomonas mobilis ZM4; coding region amplified from genomic DNA; carries a [4Fe-4S] cluster (occupancy 5-10%); also called Z. mobilis IspG; ispGZM; source: E. coli PK13681 (BL21 (DE3) derivative) with pPK13651 (pET11a), purified anaerobically (Streptrap HP, PD-10 desalting); not shown: Strep-tag II, C-terminal, kept
  stoichiometry N: 2
